Measured values reported in patent publication US20250341513A1, “Bordetella T Cells Epitopes, Megapools and Uses Thereof” (LA JOLLA INSTITUTE FOR IMMUNOLOGY, priority 2022, published 2025).

Tested on: CD4+ T cells
Test: BP genome-wide peptide library screening by ex vivo AIM assay; epitope and antigen (ORF) reactivity and donor recognition
Type: cell-based, human
Details: for frequency of donor recognition: entire cohort (n=40); for magnitude, % of total response: sum of reactivity of individual epitopes per ORF/antigen across entire cohort (n=40), FIG. 3; for % of Donor response / % of Total magnitude: immunodominant antigens (ORFs); for % of Donor response: frequency of donors recognising the antigen; for % of Total magnitude: share of total CD4+ T cell response magnitude in the genome-wide screen

| Molecule | frequency of donor recognition | magnitude, % of total response | % of Donor response | % of Total magnitude |
| --- | --- | --- | --- | --- |
| filamentous hemagglutinin [FHA] | 45.0 % of donors | 2.12 % of total response |  |  |
| S-adenosylmethionine--tRNA ribosyltransferase-isomerase QueA (protein, UniProt Q7VZ81 1-347, looked up) S-adenosylmethionine:tRNA …: MPTPLTLADFDYHLPPELIAQSPAAERGGSRLLHLDAASRLHDRRFPDLAGLLRPHDLLVFNDTRVIKARLTGQKATGGKVEVLVERITAPDRALAHVRASKSPGPGMRLRLAEAFEAEVLGREGELFDLRFPAPVLDLLDAHGATPLPPYITHAADATDERRYQTVYAREPGAVAAPTAGLHFDQPMLEQLAAQGVQRAFVTLHVGAGTFQPVRVQNLAEHIMHAEWYTVPEATVAAIARARAHGGRIVAVGTTSVRALESAAAQAQDGPLAAAQGDTRLFITPGYRYRAVDALLTNFHLPQSTLLMLVSALAGVEPIRRAYAHAVAERYRFFSYGDAMFIETPAP |  |  | 17.5% | 0.27% |
| Fim 2: fimbrial protein 2, aP vaccine antigen (protein, UniProt P05788 27-207, looked up) Serotype 2 fimbrial subunit: DDGTIVITGTITDTTCVIEDPSGPNHTKVVQLPKISKNALKANGDQAGRTPFIIKLKDCPSSLGNGVKAYFEPGPTTDYSTGDLRAYKMVYATNPQTQLSNITAATEAQGVQVRISNLNDSKITMGANEATQQAAGFDPEVQTGGTSRTVTMRYLASYVKKNGDVEASAITTYVGFSVVYP | 5 % of donors | 0.09 % of total response |  |  |
| Virulence sensor protein BvgS (protein, UniProt P16575 33-1238, looked up) Virulence sensor protein BvgS: SQELTLVGKAAVPDVEVALDGDDWRWLARKRVLTLGVYAPDIPPFDVTYGERYEGLTADYMAIIAHNLGMQAKVLRYPTREQALSALESGQIDLIGTVNGTDGRQQSLRLSVPYAADHPVIVMPIGARHVPASNLAGQRLAVDINYLPKETLARAYPQATLHYFPSSEQALAAVAYGQADVFIGDALTTSHLVSQSYFNDVRVVAPAHIATGGESFGVRADNTRLLRVVNAVLEAIPPSEHRSLIYRWGLGSSISLDFAHPAYSAREQQWMADHPVVKVAVLNLFAPFTLFRTDEQFGGISAAVLQLLQLRTGLDFEIIGVDTVEELIAKLRSGEADMAGALFVNSARESFLSFSRPYVRNGMVIVTRQDPDAPVDADHLDGRTVALVRNSAAIPLLQRRYPQAKVVTADNPSEAMLMVANGQADAVVQTQISASYYVNRYFAGKLRIASALDLPPAEIALATTRGQTELMSILNKALYSISNDELASIISRWRGSDGDPRTWYAYRNEIYLLIGLGLLSALLFLSWIVYLRRQIRQRKRAERALNDQLEFMRVLIDGTPNPIYVRDKEGRMLLCNDAYLDTFGVTADAVLGKTIPEANVVGDPALAREMHEFLLTRVAAEREPRFEDRDVTLHGRTRHVYQWTIPYGDSLGELKGIIGGWIDITERAELLRKLHDAKESADAANRAKTTFLATMSHEIRTPMNAIIGMLELALLRPTDQEPDRQSIQVAYDSARSLLELIGDILDIAKIEAGKFDLAPVRTALRVLPEGAIRVFDGLARQKGIELVLKTDIVGVDDVLIDPLRMKQVLSNLVGNAIKFTTEGQVVLAVTARPDGDAAHVQFSVSDTGCGISEADQRQLFKPFSQVGGSAEAGPAPGTGLGLSISRRLVELMGGTLVMRSAPGVGTTVSVDLRLTMVEKSVQAAPPAAATAATPSKPQVSLRVLVVDDHKPNLMLLRQQLDYLGQRVIAADSGEAALALWREHAFDVVITDCNMPGISGYELARRIRAAEAAPGYGRTRCILFGFTASAQMDEAQRCRAAGMDDCLFKPIGVDALRQRLNEAVARAALPTPPSPQAAAPATDDATPTAFSAESILALTQNDEALIRQLLEEVIRTNRADVDQLQKLHQQADWPKVSDMAHRLAGGARVVDAKAMIDTVLALEKKAQGQAGPSPEIDGLVRTLAAQSAALETQLRAWLEQRPHQDQP |  |  | 15% | 0.76% |
| Fim 3: fimbrial protein 3, aP vaccine antigen (protein, UniProt P17835 26-204, looked up) Serotype 3 fimbrial subunit: NDGTIVITGSISDQTCVIEEPSTLNHIKVVQLPKISKNALRNDGDTAGATPFDIKLKECPQALGALKLYFEPGITTNYDTGDLIAYKQTYNASGNGNLSTVSSATKAKGVEFRLANLNGQHIRMGTDKTTQAAQTFTGKVTNGSKSYTLRYLASYVKKPKEDVDAAQITSYVGFSVVYP | 12.5 % of donors | 0.24 % of total response |  |  |
| BrkA autotransporter (protein, UniProt Q45340 43-1010, looked up) BrkA autotransporter: QAPQPPVAGAPHAQDAGQEGEFDHRDNTLIAVFDDGVGINLDDDPDELGETAPPTLKDIHISVEHKNPMSKPAIGVRVSGAGRALTLAGSTIDATEGGIPAVVRRGGTLELDGVTVAGGEGMEPMTVSDAGSRLSVRGGVLGGEAPGVGLVRAAQGGQASIIDATLQSILGPALIADGGSISVAGGSIDMDMGPGFPPPPPPLPGAPLAAHPPLDRVAAVHAGQDGKVTLREVALRAHGPQATGVYAYMPGSEITLQGGTVSVQGDDGAGVVAGAGLLDALPPGGTVRLDGTTVSTDGANTDAVLVRGDAARAEVVNTVLRTAKSLAAGVSAQHGGRVTLRQTRIETAGAGAEGISVLGFEPQSGSGPASVDMQGGSITTTGNRAAGIALTHGSARLEGVAVRAEGSGSSAAQLANGTLVVSAGSLASAQSGAISVTDTPLKLMPGALASSTVSVRLTDGATAQGGNGVFLQQHSTIPVAVALESGALARGDIVADGNKPLDAGISLSVASGAAWHGATQVLQSATLGKGGTWVVNADSRVQDMSMRGGRVEFQAPAPEASYKTLTLQTLDGNGVFVLNTNVAAGQNDQLRVTGRADGQHRVLVRNAGGEADSRGARLGLVHTQGQGNATFRLANVGKAVDLGTWRYSLAEDPKTHVWSLQRAGQALSGAANAAVNAADLSSIALAESNALDKRLGELRLRADAGGPWARTFSERQQISNRHARAYDQTVSGLEIGLDRGWSASGGRWYAGGLLGYTYADRTYPGDGGGKVKGLHVGGYAAYVGDGGYYLDTVLRLGRYDQQYNIAGTDGGRVTADYRTSGAAWSLEGGRRFELPNDWFAEPQAEVMLWRTSGKRYRASNGLRVKVDANTATLGRLGLRFGRRIALAGGNIVQPYARLGWTQEFKSTGDVRTNGIGHAGAGRHGRVELGAGVDAALGKGHNLYASYEYAAGDRINIPWSFHAGYRYSF |  |  | 20% | 0.44% |
| Membrane protein insertase YidC (protein, UniProt P65622 1-563, looked up) Membrane protein insertase …: MDIRRTVLWMIFSFSLLLLWNNWQIHNGKPSLFGGPAPEAAATQQPKADANGTAASSTASIPSSPAAAPAAASVPGAAAPAAAKSEQVVITTDVLRLTFDSNGAQLIRAELLKYPSSSQSDKPTVLMDRSADLVYVAQTGVVGAPQGESFPTHQTPFHLVSSERSLTGDTLDVVFEAESGGLKVTKTYTLHRGRYDVDVRHAMANTGGAPLNPALYLQLERDGTDPAGTSSFYHTFTGVAVYSEQDKFQKVTFSDIEKKKGTYIKQADNGWIGIVQHYFATAWIPAQGKQRTNELLQVQQNLYAARTIEAVGTIAPGSSANVDAHLWVGPQDQKAMAAVAPGLELVVDYGWLTIIAKPLFTLMTWLHGLLGNWGWTIVALTVIIKAVFFPLAAASYRSMARMKQVAPRLQALKEKYGDDRQKLNQAMMEMYRTEKINPLGGCLPMVVQIPVFIALYWVLLASVEMRGAPWILWVHDLSVRDPFFILPAIMMATMFLQIKLNPTPPDPVQAKVMMIMPLVFGGMMFFFPAGLVLYWCVNNTLSIAQQWTITRNLERQAAAAANR |  |  | 17.5% | 1.35% |
| pertactin (protein, UniProt P14283 35-910, looked up, aP vaccine antigen of B. pertussis) Pertactin autotransporter: DWNNQSIVKTGERQHGIHIQGSDPGGVRTASGTTIKVSGRQAQGILLENPAAELQFRNGSVTSSGQLSDDGIRRFLGTVTVKAGKLVADHATLANVGDTWDDDGIALYVAGEQAQASIADSTLQGAGGVQIERGANVTVQRSAIVDGGLHIGALQSLQPEDLPPSRVVLRDTNVTAVPASGAPAAVSVLGASELTLDGGHITGGRAAGVAAMQGAVVHLQRATIRRGDAPAGGAVPGGAVPGGAVPGGFGPGGFGPVLDGWYGVDVSGSSVELAQSIVEAPELGAAIRVGRGARVTVSGGSLSAPHGNVIETGGARRFAPQAAPLSITLQAGAHAQGKALLYRVLPEPVKLTLTGGADAQGDIVATELPSIPGTSIGPLDVALASQARWTGATRAVDSLSIDNATWVMTDNSNVGALRLASDGSVDFQQPAEAGRFKVLTVNTLAGSGLFRMNVFADLGLSDKLVVMQDASGQHRLWVRNSGSEPASANTLLLVQTPLGSAATFTLANKDGKVDIGTYRYRLAANGNGQWSLVGAKAPPAPKPAPQPGPQPPQPPQPQPEAPAPQPPAGRELSAAANAAVNTGGVGLASTLWYAESNALSKRLGELRLNPDAGGAWGRGFAQRQQLDNRAGRRFDQKVAGFELGADHAVAVAGGRWHLGGLAGYTRGDRGFTGDGGGHTDSVHVGGYATYIADSGFYLDATLRASRLENDFKVAGSDGYAVKGKYRTHGVGASLEAGRRFTHADGWFLEPQAELAVFRAGGGAYRAANGLRVRDEGGSSVLGRLGLEVGKRIELAGGRQVQPYIKASVLQEFDGAGTVHTNGIAHRTELRGTRAELGLGMAAALGRGHSLYASYEYSKGPKLAMPWTFHAGYRYSW | 40 % of donors | 1.33 % of total response |  |  |
